Test results: patent publication US10683486B2, “Methods for producing hepatocytes” (BioLamina AB, priority 2015, dated 2020)

Assays:
[1] = tested on: MAN12 derived hepatocytes; assay: Protein secretion (ELISA) and CYP p450 activity of MAN12 derived hepatocytes; type: cell-based, human; conditions: CYP1A2 and CYP3A activity, days 18, 20 and 24
Method: MAN12 cells, a GMP grade cell line, were plated on three different substrates. The first substrate was Matrigel® (MG), and served as a control. The second substrate was coated with 5 micrograms per square centimeter (μg/cm^2) of laminin-521 (LN-521). […] The cells were then differentiated according to the Cameron protocol.
FIG. 15 is a set of four bar graphs. The first row of two graphs show hepatocyte protein secretion for alpha fetoprotein and albumin as analyzed by ELISA on day 24 of differentiation (n=3). No significant differences were observed across the three matrices. The second row of two graphs show the metabolic function of CYP p450 activity on days 18, 20, and 24 for CYP1A2 and CYP3A activity.
(§1) Looking at both Example 4 and Example 5, the MAN11 and MAN12 cells differentiated efficiently on all three substrates, with the majority of cells (>80%) expressing albumin and CYP3A, as detected by immunostaining.

[2] = tested on: stem-cell derived hepatocytes; assay: Phase contrast morphology and MRP1/HNF4a co-immunostaining (functional organization); type: cell-based, human; conditions: day 24
Description: FIG. 8 is a set of nine photomicrographs from day 24 of differentiation.
The phase contrast images also indicated hepatocytes were arranged in lobule-like structures within the culture dish, reminiscent of regenerating liver.
Around these lobule structures, positive staining for MRP-1, an important basal membrane marker, was detected.

[3] = tested on: MAN11 derived hepatocytes; assay: Protein secretion (ELISA) and CYP p450 activity of MAN11 derived hepatocytes; type: cell-based, human; conditions: day 18, n=3, versus MG
Method: MAN11 cells, another GMP grade cell line, were plated on three different substrates. The first substrate was Matrigel® (MG), and served as a control. The second substrate was coated with 5 micrograms per square centimeter (μg/cm^2) of laminin-521 (LN-521). […] The cells were then differentiated according to the Cameron protocol.
FIG. 17 is a set of four bar graphs. […] The second row of two graphs show the metabolic function of CYP p450 activity on day 18 for CYP1A2 and CYP3A activity. No significant differences were observed across the three matrices.
as §1

[4] = tested on: stem cell derived hepatocytes; assay: CYP3A and CYP1A2 activity using pGlo technology; type: cell-based, human; conditions: days 16-26
Method: Given that cell organisation and cell division are important factors in hepatocyte function, hepatocyte metabolic capacity in vitro was studied. Stem cell derived hepatocytes were first examined for cytochrome P450 expression using well characterised antisera. CYP3A and CYP1A2 activity were measured from days 16-26 using pGlo technology. CYP activity was expressed as relative light units (RLU) per milliliter of media per milligram of protein. Levels of significance were measured by student t-test.
All of the cells expressed high levels of each marker on each substrate.

[5] = tested on: primary human hepatocytes (PHHs); assay: Primary human hepatocyte metabolism and protein production on the substrates; type: cell-based; conditions: female PHHs, ELISA
Method: Cryoplateable human hepatocytes were plated and maintained according to the instructions of vendor Life Technologies. Briefly, cryoplateable hepatocytes were resuscitated in thawing medium (Life Technologies, catalog no. CM3000) and plated onto the pre-coated 96 well plates. Cells-attached to all matrices efficiently and were maintained in an incubator set at 37 degrees Celsius and CO2 levels set to 5%. At 24 hours post-plating, the medium was changed to an incubation medium (catalog no. CM4000).
To determine whether these large changes in metabolic capacity correlated to increased protein production, the production of albumin and alpha fetoprotein (AFP) from hESC-derived and cryoplatable hepatocytes was quantified using commercially available enzyme-linked immunosorbent assay (ELISA) kits. The different media were collected at denoted time points during hESC differentiation, days 20-26. […] Samples were run in triplicate and measured on a FLUOStar Omega multi-mode microplate reader. Protein production was expressed as ng or μg of protein per milliliter of media, per milligram of protein. The results are shown in FIG. 7, where the expression of these two proteins was measured on days 20, 22, 24, and 26 of differentiation. Despite the large changes in metabolic capacity, no significant differences in albumin or AFP secretion was detected by ELISA. […]

[6] = tested on: H9 hESCs differentiating to hepatocyte like cells; assay: Quantitative PCR gene expression during differentiation; type: cell-based, human; conditions: days 0, 3, 9, 18; normalized to GAPDH
Method: Total RNA was isolated from cells using Trizol reagent. RNA quantification and quality was assessed using a Nanodrop system. The Life Technologies Superscript III reverse transcription kit was employed to prepare the cDNA. Quantitative PCR was performed with Taqman Fast Advance Mastermix and the appropriate primer pair and analysed using a Roche LightCycler 480 Real-Time PCR System. Gene expression was normalized to glyceraldehyde 3-phosphate dehydrogenase (GAPDH) and expressed as relative expression over the control sample (hESC on Day 0 of differentiation). Quantitative PCRs were performed in triplicate. Data analysis was performed using Roche LightCycler 480 Software (version 1.5). […] Cell extracts were collected during differentiation and mRNA assessed on days 0, 3, 9, and 18. […] It should be remembered that the “LN-511” label refers to a substrate containing a blend of laminin-521 and laminin-111 at a 1:3 weight ratio. FIG. 3 is a set of six bar graphs showing gene expression during differentiation on the three substrates (MG, LN-521, and LN-511) for six different genes whose name is above each graph. Relative gene expression was normalized to the housekeeping gene GAPDH. […] Endoderm associated gene FOXA2 peaked on all substrates on day 3 and then decreased thereafter. […] HNF4A was detected at day 3 on all substrates, but by day 9, significant differences in expression patterns emerged.

## LN-521: substrate coated with 5 μg/cm^2 of laminin-521, the protein formed by joining α5, β2 and γ1 chains
[1]
  metabolic activity of MAN12 derived hepatocytes: improved metabolic activity
[2]
  MRP-1 staining, hepatocyte organisation: exhibited networks of organised hepatocytes in vitro
[3]
  Albumin secretion: signicantly increased
  alpha fetoprotein (AFP) secretion: significant reduction
[3]; listed as LN-512
  alpha fetoprotein (AFP) secretion: significantly reduced foetal protein secretion
[4]
  CYP1A2 activity compared with MG control: significantly greater than it was on the control
[5]
  albumin production: enhanced
[6]
  AFP gene expression over time: peaking on day 9 then decreasing at day 18
  HNF4A gene expression over time: highest on day 9, decreasing by day 18
